# Source: the supplement of paper PMC9170038
# Test system: MS2 coat protein
# Test: apparent KD of MS2 coat protein; designed switch direction (-1 OFF switch, 1 ON switch): 1; higher = weaker reporter binding
# In short: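 Each step of the titration lasted 0.8–1.5 h at the lowest concentration and 10–20 min at the highest. The protein, SNAP-549-labelled MS2 coat protein, went from 0.7 or 1.5 nM doubling to 3 µM over RNA switches transcribed on Illumina chips by stalled E. coli RNA polymerase. Normalised cluster fluorescence was curve-fitted, and the per-design median over clusters is given as apparent KD.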
# [1] = input ligand: microRNA oligo, concentration not stated
# [2] = Eterna round: R95, input ligand: FMN 200 uM
# [3] = Eterna round: R95, input ligand: microRNA oligo, concentration not stated
# [4] = Eterna round: R95, input ligand: none
Sequence,apparent KD of MS2 coat protein (input ligand: FMN 200 uM) [nM],apparent KD of MS2 coat protein [1] [nM],apparent KD of MS2 coat protein (input ligand: none) [nM],apparent KD of MS2 coat protein [2] [nM],apparent KD of MS2 coat protein [3] [nM],apparent KD of MS2 coat protein [4] [nM]
"UGUUGUAUUACAGGAUAUCUAUUAGUUGUAUUUAGAGAAGGGUAUUCACAUGAGGAUCACCCAUGUAUAUACGAGGAAGUUGUG [JMF's solution 92] (Eterna round: R96, puzzle: Same State NG 1)",79.8,44.1,59.7,–,–,–
"GAGUAGUUGAAAGGAUAUUGAUUAUUGUAGGAUCAAGAAGGUUCUAACAUGAGGAUCACCCAUGUAGGACUAUUCCUGUGUAUC [Parity 89 - Jieux - Same State NG 1] (Eterna round: R96, puzzle: Same State NG 1)",–,8.63,–,–,–,–
"AUAAGACACAUGAGGAUCACCCAUGUGGCCGUAGUCGGCUCACAGGAUAUCAAGCUACUAGUGCUUGAGAAGGGUGAGACAAGC [Raar Mod] (Eterna round: R96, puzzle: Same State NG 3)",57.3,190,323,–,–,–
"CCGGACAUGAGGAUCACCCAUGUCGACGGAUACCCUUGGGCAUAGGAUAUCUGGAAUUAAAAGAAAGAGAAGGGUGAUCCAAGG [Qusoinrege] (Eterna round: R96, puzzle: Same State NG 3)",23.6,40.8,40.4,–,–,–
"AAAGGAUGAUUAUACAUGAGGAUCACCCAUGUAAGUAAUACUAAGGAUAUGUGACUUAAUUGUUUACAGAAGGUAGGUUCAUGA [AK SSNG3-V2-1.1] (Eterna round: R96, puzzle: Same State NG 3)",58.8,230,117,–,–,–
"AUUAAUUAAUUAAUACAUGAGGAUCACCCAUGUAAUAAGAUCAAGGAUAUCAGCUCGUUUAGAGCUGAGAAGGUGAUCACAUGU [SSNG3/17-B3] (Eterna round: R96, puzzle: Same State NG 3)",–,246,–,–,–,–
AUUAAACAUGAGGAUCACCCAUGUCAACAAAGUCGAGGAUAUGGGCAAAUUAUAUAAUAACCAGAAGGCGAAUAAU [salish99_ss1_r3_083] (puzzle: Same State 1),–,–,–,15.2,18.9,14.2
"CCGAUGGUAUACUAGGAUAUGGGCGCCCUUACAUGAGGAUCACCCAUGUUUACACAAAUCCGCGGCCAGAAGGAGUUCAUGGGAG [Orgere] (Eterna round: R96, puzzle: Same State 2)",134,85.6,112,–,–,–
"GGAGACAGAGCAGGAUAUGCUCCGAGUAACGAAGCAGAAGGGUUCGUAAAUCGUCGACAUGAGGAUCACCCAUGUGACCUAGUA [Eternabot solution 18] (Eterna round: R96, puzzle: Same State NG 1)",20.7,18.4,24.7,–,–,–
"GUGGUCAGACAUGAGGAUCACCCAUGUGGAAUAAAUAAGGGAAAGGAUAUAAAAUAUAGGAUAUAUUAGAAGGUUCGGUUGGUG (Eterna round: R96, puzzle: Same State NG 3)",131,83.9,89.6,–,–,–
ACACCACAUGAGGAUCACCCAUGUGUCAAUAACACAGGAUAUCACCCGGAAUACACCGGGUGAGAAGGGUGACCGA [Gesois] (puzzle: Same State 1),–,–,–,158,30.1,25.4
"UGGUACAUGGGAGGAUAUCAUGUAGAAACAUGAGGAUCACCCAUGUAGAUGGCAGCUUUGCUGAAUGAGAAGGCCCAUGUACCU [JL SSNG1 3.58] (Eterna round: R96, puzzle: Same State NG 2)",15.6,18.9,22.8,–,–,–
"GUAGCAUACCGAGGAUAUUCAUAUACAUGAGGAUCACCCAUGUUUAGGCCACAUUAGUGGCCUUGGGAGAAGGCGGAAUGCUAC [Xeonanis - 20 Mod44] (Eterna round: R96, puzzle: Same State NG 2)",13,15.7,23.4,–,–,–
AGUCCAGCGAAAGCUGGACAAAGGCAUGUACAUGAGGAUCACCCAUGUUCAUGUACAAGCUUUUUGCUCGUCUUAAA [JL mod - D95 - 3] (puzzle: Sensor for hsa-mir-208a),–,–,–,147,14,194
AAAGCACAUGAGGAUCACCCAUGUGGAAAUAACACAGGAUAUCUGGCCUAAGCUUAGGCGAGAGAAGGGUGACCUA [Beintivequ] (puzzle: Same State 1),–,–,–,–,65.5,–
"GUGGUCAGACAUGAGGAUCACCCAUGUGGAAUAAAUAAGGGACAGGAUAUUUAAUAUAGGAUAUAGAAGAAGGGUUGGUUGGUG (Eterna round: R96, puzzle: Same State NG 3)",–,88.7,–,–,–,–
"UUCUCCUUUUUUUACAUGAGGAUCACCCAUGUUUACCCUACGUAGGAUAUCGAUGAGUGUUUGUACGAGAAGGACGUAGUAAGU [JR_SSND3_Sub058] (Eterna round: R96, puzzle: Same State NG 3)",37.4,106,137,–,–,–
UACCAACAAAUAAAACAAGCGUGCUCGUCACAUGAGGAUCACCCAUGUUUAAACGCUGUACCUACAUCCUCAGCGCC [Usatqulale] (puzzle: Sensor for hsa-mir-208a),–,–,–,38.9,31.3,52
"UUGUUUCGUCAUUAACAUGAGGAUCACCCAUGUAUUGACCCAGAGGAUAUGCAUGUUUGAUUGUAGCAGAAGGCUGAUUGUUGU [JR_SSNG3_Sub032] (Eterna round: R96, puzzle: Same State NG 3)",13.7,27,26.3,–,–,–
"GCUAGAAUAAACGCCUACAUGAGGAUCACCCAUGUAUGUAGGCAGGAUAUCGUUUGCAAAGCAAACGAGAAGGGCCUUACUAGC [Mat - Same State NG 3 - JL Mod - D32] (Eterna round: R96, puzzle: Same State NG 3)",20.2,22.2,37.1,–,–,–
"UUAAUGAUGUAAGGAUAUACAUGAGGAAUUCUCGUAGAAGGUACAUGACAUGAGGAUCACCCAUGUAUCGCUCCGUAGAGCGUA [JL SSNG1 1.12] (Eterna round: R96, puzzle: Same State NG 1)",190,119,79.7,–,–,–
